Results: the supplement of paper PMC10567573
± gives the standard deviation.

Test: protein stability index of a GFP-peptide fusion (GPS, HEK-293T) (PSI 1-6); higher = more stable
[1] = treatment: DMSO, c terminus: a fixed tail appended
[2] = treatment: MLN4924 1 uM, 8 h, c terminus: a fixed tail appended
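Note: 24-mer peptide tiles fused after GFP, lentivirally expressed, FACS-sorted into six equal bins by GFP/DsRed ratio, decoded by Illumina sequencing, PSI is the read-weighted mean bin number.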

Row | Sequence | protein stability index [1] | protein stability index [2] | protein stability index (treatment: DMSO, c terminus: native) | protein stability index (treatment: MLN4924 1 uM, 8 h, c terminus: native)
1 | TVAGSLNDFSYLHTNCFELSIYVG [CPXM2] | 2.79 ± 0.78 | 2.55 ± 0.7 | – | –
2 | GTIFIRNVLLFKKQNPGKFCLLSC [RETREG3] | 2.7 ± 0.6 | 2.89 ± 0.34 | – | –
3 | ILSACSPYFRAMFTGELAESRQTE [KLHL20] | 2.06 ± 0.086 | 2.48 ± 0.33 | – | –
4 | EMHTALMEACMDGHVEVARLLLDS [ANKRD17] | 2.38 ± 0.22 | 2.55 ± 0.28 | – | –
5 | EAQRASFLQNAVLAYVQASPVRTL [LRRC45] | 2.41 ± 0.29 | 2.3 ± 0.26 | – | –
6 | GMRRKSLLTRKVICKSDAPTGDVL [GOLPH3] | 3.51 ± 0.18 | 3.53 ± 0.52 | – | –
7 | KSYNICFELEDSNEIFTQLYRTLF [PDS5B] | 3.05 ± 0.83 | 2.87 ± 0.61 | – | –
8 | TKGEEISVYVKLAGEREDLWAGSK [MIA2] | 3.36 ± 0.6 | 3.83 ± 0.19 | – | –
9 | ILTGCKNMLFQQNKDGIGEICLWG [ACSBG2] | 3.01 ± 1.4 | 2.92 ± 0.44 | – | –
10 | PGPDTGPDSELSPCIPPGFRNLVA [SPAG8] | 3.79 ± 0.27 | 3.94 ± 0.17 | – | –
11 | VCDLQSLLGYTPEELHAMLDVKPD [ETS1] | 4.04 ± 0.21 | 4.07 ± 0.12 | – | –
12 | HARLSDIWAKTPPITRKAAQLYTL [DHCR7] | 2.29 ± 0.22 | 2.3 ± 0.29 | – | –
13 | ASAAAATAAFTTAKAAALSTKTPA [SPAG8] | 4.48 ± 0.26 | 4.57 ± 0.2 | – | –
14 | LDDGEIDEIRWKYHSDTTPKIIES [IQUB] | 4.25 ± 0.23 | 3.98 ± 0.24 | – | –
15 | VISPMYQLHKPLAEGTPRSNHSAQ [IKZF1] | 3.76 ± 0.32 | 4.06 ± 0.31 | – | –
16 | WKESKGKDREYTDIIRKQVLGTKV [CDC34] | 3.66 ± 0.17 | 3.7 ± 0.4 | – | –
17 | RHLRSAHRRELESSGAGSSPPAAP [ZBED3] | 5.09 ± 0.36 | 5.1 ± 0.28 | – | –
18 | VTVSDASWVSELLWSLFVPFTVYQ [AUP1] | 2.87 ± 0.55 | 3.14 ± 0.47 | – | –
19 | PPETTETPKCSSPRGQEGSRQDKP [YJU2B] | 5.5 ± 0.36 | 5.54 ± 0.26 | – | –
20 | RMEKGEPYMSIQPAEDPDDYDDGF [SMARCE1] | 5.61 ± 0.076 | 5.54 ± 0.27 | – | –
21 | EGLLRFSSWPFSIQDVVQPLTLQV [AUP1] | 2.85 ± 0.76 | 2.98 ± 1 | – | –
22 | WSECSRTCGEGYQFRVVRCWKMLS [ADAMTSL2] | 3.1 ± 1.8 | 2.19 ± 0.34 | – | –

Row | Sequence | protein stability index [1] | protein stability index [2] | protein stability index (treatment: DMSO, c terminus: native) | protein stability index (treatment: MLN4924 1 uM, 8 h, c terminus: native)
23 | VVFHCEFSSERGPRMCRYVRERDR [CDC25A] | 2.41 ± 0.56 | 2.4 ± 0.3 | – | –
24 | AALNMSLGMVTPVNDLRGSDSIAY [ADD1] | 2.48 ± 0.37 | 2.62 ± 0.22 | – | –
25 | YLSPRDFLSGLAFRVFHCTQYVRH [TPH1] | 2.31 ± 0.2 | 2.08 ± 0.17 | – | –
26 | TRHLKRLALMIQSSGNTVLLLILC [TMEM192] | 2.55 ± 0.41 | 2.35 ± 0.29 | – | –
27 | SNSADDETDDPRRYQKYGYIGTHE [OAS1] | 4.99 ± 0.11 | 4.85 ± 0.16 | – | –
28 | LASPHTVAAVLEAVAQTAHLPADS [RSAD1] | 3.61 ± 0.33 | 3.83 ± 0.25 | – | –
29 | SAGVPPSAPLQGAVPPTSSVPPVA [SNAP91] | 4.79 ± 0.13 | 4.82 ± 0.15 | – | –
30 | RFYYSEDDHGDECSYTDLLPQDEG [KCNA4] | 5.07 ± 0.19 | 4.88 ± 0.27 | – | –
31 | QGYTINVPWNQVGMRDADYIAAFL [HDAC6] | 2.25 ± 0.22 | 2.46 ± 0.37 | – | –
32 | LKLQTKDGHRPEWTFYPRFSSNIH [SPATS1] | 2.4 ± 0.3 | 2.48 ± 0.32 | – | –
33 | VDSPKNFNIAGTVVKYRRPMDVYE [ADAMTSL2] | 3.44 ± 0.36 | 3.49 ± 0.54 | – | –
34 | YVATEAILIALVGATPSYHWDLAE [SLC22A15] | 3.01 ± 0.39 | 3.27 ± 0.31 | – | –
35 | AQEVSPCGPPSLGAVLALVAIFIM [MFSD9] | 2 ± 0.15 | 1.93 ± 0.39 | – | –
36 | NIRPSSSGGYWVGMSTIRPNPGFS [APMAP] | 2.61 ± 1 | 2.65 ± 0.37 | – | –
37 | ASVTIQARAEQEEEFISNTLFKKI [CCDC6] | 3.54 ± 0.14 | 3.81 ± 0.12 | – | –
38 | LSGVSQLLPKSRENYLNRCMDQER [FCHO1] | 3.78 ± 0.21 | 3.95 ± 0.14 | – | –
39 | KQKTSAALSTMGTLICRKLGGVKK [TPD52L3] | 2.98 ± 0.29 | 2.83 ± 0.34 | – | –
40 | AVLLQLYVATEAILIALVGATPSY [SLC22A15] | 3.33 ± 0.37 | 3.26 ± 0.52 | – | –
41 | SRSPLKIVKKPKSMQCKVILLDGS [EPB41L3] | 2.52 ± 0.081 | 2.51 ± 0.29 | – | –
42 | HTVGVLFNNGAHMSLLPDKKTVHY [PLK2] | 2.65 ± 0.33 | 2.66 ± 0.22 | – | –
43 | EVRLVPVSFEDPEFKSSFSQSFSL [ATE1] | 2.56 ± 0.41 | 2.74 ± 0.39 | – | –
44 | TLLPWNFFMTATQYFTNRLDMSQN [SLC29A1] | 2.9 ± 0.49 | 2.85 ± 0.37 | – | –

Row | Sequence | protein stability index [1] | protein stability index [2] | protein stability index (treatment: DMSO, c terminus: native) | protein stability index (treatment: MLN4924 1 uM, 8 h, c terminus: native)
45 | YVRLVCKDVRAPSRPAVGPPQPGC [ZSWIM9] | 2.22 ± 0.23 | 2.4 ± 0.27 | – | –
46 | GNEKSIIDCKFNAESQGCNHEEDA [LOXL2] | 5.65 ± 0.23 | 5.57 ± 0.47 | – | –
47 | SDAGSPSLHKHLTIRLNISDVNDN [PCDHGC5] | 3.73 ± 0.17 | 3.71 ± 0.24 | – | –
48 | PLQLLREMRQALQALLKENRLLQE [CBY2] | 2.93 ± 0.28 | 3.4 ± 0.51 | – | –
49 | QCDHCERCFYTRKDVRRHLVVHTG [PLAGL1] | 2.91 ± 0.074 | 3.19 ± 0.27 | – | –
50 | TFLPDNFSPAKPKPSKELKPLLGS [MYORG] | 3.52 ± 0.088 | 3.69 ± 0.28 | – | –
51 | VIATATVYFKRFYARYSLKSIDPV [CCNC] | 2.8 ± 0.74 | 2.8 ± 0.64 | – | –
52 | LFYKPGIVLLLALAKYLKMNNFL [GULP1] | – | – | 2.87 ± 0.92 | 2.87 ± 0.91
53 | SPSRAPGLRQRASNKVQDSAPVET [HMOX1] | 5.01 ± 0.27 | 5.22 ± 0.2 | – | –
54 | PQPPDAPQLVSSAREGSSEPWLPL [PLEKHN1] | 4.36 ± 0.25 | 4.56 ± 0.1 | – | –
55 | SLPKRLCLVCGDVASGYHYGVASC [ESRRA] | 2.22 ± 0.28 | 2.43 ± 0.48 | – | –
56 | SLKDQERVAEVSRVRVELQEQNGR [LRRC45] | 5.17 ± 0.45 | 4.91 ± 0.26 | – | –
57 | SPTFPALGIGMDSCVIPLRHGGLS [SEPHS2] | 2.98 ± 0.15 | 2.98 ± 0.29 | – | –
58 | LVQDLVDSLKFAVLMWLLTYVGAL [RTN1] | 2.94 ± 0.2 | 2.85 ± 0.26 | – | –
59 | SVRRTRSKIGFGILLSKEPDGVWA [SMAD6] | 2.18 ± 0.12 | 2.3 ± 0.12 | – | –
60 | ILIASRDIAAGEELLYDYGDRSKA [KMT5A] | 3.44 ± 0.45 | 3.64 ± 0.65 | – | –
61 | TKSPCESNNKKNDEMQEVPNRVLA [SPANXN3] | 5.22 ± 0.2 | 5.33 ± 0.19 | – | –
62 | QAGDKDLDGQLDFEEFVHYLQDHE [SLC25A25] | 5.19 ± 0.23 | 4.96 ± 0.23 | – | –
63 | EDSLAALSSVPSEAQISDPFAPEP [SNAP91] | 5.33 ± 0.34 | 5.34 ± 0.18 | – | –
64 | TETEATNSLITAPGEFSDASMSPD [SMAD6] | 5.42 ± 0.2 | 5.28 ± 0.37 | – | –
65 | WTQATGLGCALLAAHAVVLCALPV [SOAT2] | 3.18 ± 0.35 | 2.97 ± 0.095 | – | –
